Experimental findings from paper PMC4598982, “Impact of Cell-surface Antigen Expression on Target Engagement and Function of an Epidermal Growth Factor Receptor × c-MET Bispecific Antibody*” (The Journal of Biological Chemistry, 2015) are described below.

The data set concerns the molecule itself. The data set can be described thus: split reporter (BiFC, NanoBiT); PathHunter enzyme fragment complementation in the c-MET homodimer U-2 OS cell line; recombinant human HGF serially diluted; 6 h at room temperature; lower levels with bivalent c-MET mAb, even lower levels with JNJ-61186372 and monovalent c-MET BsAbs.

B1: c-MET(1–960) C-terminally fused to a complementary inactive fragment of β-galactosidase (receptor, UniProt P08581 25-960, looked up)
chain: ECKEALAKSEMNVNMKYQLPNFTAETPIQNVILHEHHIFLGATNYIYVLNEEDLQKVAEYKTGPVLEHPDCFPCQDCSSKANLSGGVWKDNINMALVVDTYYDDQLISCGSVNRGTCQRHVFPHNHTADIQSEVHCIFSPQIEEPSQCPDCVVSALGAKVLSSVKDRFINFFVGNTINSSYFPDHPLHSISVRRLKETKDGFMFLTDQSYIDVLPEFRDSYPIKYVHAFESNNFIYFLTVQRETLDAQTFHTRIIRFCSINSGLHSYMEMPLECILTEKRKKRSTKKEVFNILQAAYVSKPGAQLARQIGASLNDDILFGVFAQSKPDSAEPMDRSAMCAFPIKYVNDFFNKIVNKNNVRCLQHFYGPNHEHCFNRTLLRNSSGCEARRDEYRTEFTTALQRVDLFMGQFSEVLLTSISTFIKGDLTIANLGTSEGRFMQVVVSRSGPSTPHVNFLLDSHPVSPEVIVEHTLNQNGYTLVITGKKITKIPLNGLGCRHFQSCSQCLSAPPFVQCGWCHDKCVRSEECLSGTWTQQICLPAIYKVFPNSAPLEGGTRLTICGWDFGFRRNNKFDLKKTRVLLGNESCTLTLSESTMNTLKCTVGPAMNKHFNMSIIISNGHGTTQYSTFSYVDPVITSISPKYGPMAGGTLLTLTGNYLNSGNSRHISIGGKTCTLKSVSNSILECYTPAQTISTEFAVKLKIDLANRETSIFSYREDPIVYEIHPTKSFISGGSTITGVGKNLNSVSVPRMVINVHEAGRNFTVACQHRSNSEIICCTTPSLQQLNLQLPLKTKAFFMLDGILSKYFDLIYVHNPVFKPFEKPVMISMGNENVLEIKGNDIDPEAVKGEVLKVGNKSCENIHLHSEAVLCTVPNDLLKLNSELNIEWKQAISSTVLGKVIVQPDQNFTGLIAGVVSISTALLLLLGFFLWLKKRKQ
notes: signal peptide in the construct; membrane localisation of the construct was checked by flow cytometry; In the homodimer cell line two copies carry the two complementary β-gal fragments; also called hepatocyte growth factor receptor; HGF receptor; source: U-2 OS cells, stably transfected, on cells
Turning to B1, the “EC50 of HGF for c-MET homodimerization” value amounted to 3.21 nM.
